Source: the supplement of paper PMC9170038

System: MS2 coat protein
Assay: apparent KD of MS2 coat protein; designed switch direction (-1 OFF switch, 1 ON switch): -1; higher = weaker reporter binding
Method in brief: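 Designed RNA switches with common flanks were made on Illumina chips by stalled E. coli RNA polymerase. Titration with SNAP-549-labelled MS2 coat protein doubled from 0.7 or 1.5 nM up to 3 µM. Apparent KD is each design's median over clusters after curve-fitting normalised fluorescence.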

[1] = input ligand: microRNA oligo, concentration not stated
[2] = Eterna round: R95, input ligand: FMN 200 uM
[3] = Eterna round: R95, input ligand: microRNA oligo, concentration not stated
[4] = Eterna round: R95, input ligand: none

Sequence | apparent KD of MS2 coat protein (input ligand: FMN 200 uM) [nM] | apparent KD of MS2 coat protein [1] [nM] | apparent KD of MS2 coat protein (input ligand: none) [nM] | apparent KD of MS2 coat protein [3] [nM] | also measured
UUUAAUUUAAUUAAGAUCACAUGAGGAUCACCCAUGUAAUUAUAGGAUAUCAGCUCGAUUAGAGCUGAGAAGGAUAAUUACAUA [ExNG3/5-A1] (Eterna round: R96, puzzle: Exclusion NG 3) | 105 | 75.1 | 58.1 |  | 
GGCCUUCCGCAAGCUUUUUACAUGAGGAUCACCCAUGUGGUUUUUAGUCUUAUGUUCGGGCCCGUGUGGGCUCGGGC [-25.5, -46.5, A 13%] (Eterna round: R97, puzzle: Sensor, turn-off variant 1) | 28.4 |  | 29 |  | 
ACCCAACAUGAGGAUCACCCAUGUCAGGAUAUCCUCGGGAAACCAAAAGAGGAGCCGAGGAGAAGGGACAGAGG [ChP 04-04-2015 #5] (puzzle: Exclusion 1) |  |  |  | 233 | apparent KD of MS2 coat protein [2]: 124 nM; apparent KD of MS2 coat protein [4]: 227 nM
CUCUUGUCAGGAUAUCUAAGCUGCCUCCCGGUAGCCGAAUUAGAGAAGGGACAUGAGGAUCACCCAUGUAAAAG [Qubile] (puzzle: Exclusion 4) |  |  |  | 160 | apparent KD of MS2 coat protein [2]: 58.3 nM; apparent KD of MS2 coat protein [4]: 280 nM
UACCUGAGGCUUUGCUUUAGGCUUACAUGAGGAUCACCCAUGUAGGAUAUGGUAGGCAAAGCUUACCAGAAGGACAUGGAAAUU [Mat - Exclusion NG 3 - Mod of JL - D21] (Eterna round: R96, puzzle: Exclusion NG 3) |  | 13.2 |  |  | 
GAUGUUCGAGUUAGGAUAUGAAUCCAUACCGGACAUCAGAAGGAACUUGAGGAUCACCCAAGUGGGAAAGAAAU [Orzavera] (Eterna round: R97, puzzle: Brourd's mod of Exclusion 4) | 26.3 |  | 23.5 |  | 
AAUAACAGAGGAUAUACUGUUUUAUGUGUUUGUUGUUUUAAACAUGAGGAUCACCCAUGUAGAAGGCUGAAUAA [JMF 19] (puzzle: Exclusion 2) |  |  |  | 18.4 | 
GAUCAACAUGAGGAUCACCCAUGUCAGGAUAUCUAUCAAGUGAGCCUAUCACAAUUUGGGAGAAGGGACCUAAU [Eternabot (L2) Solution 51] (Eterna round: R97, puzzle: Exclusion 1) | 35.1 |  | 35.8 |  | 
GUGUAGAUAGGAUAUGCGUGAGUCUAGCGAAGCUAGGCUCUACAUGAGGAUCACCCAUGUAGAAGGGUCUACAC [Dot plot directed A v14] (puzzle: Exclusion 2) |  |  |  | 17.3 | 
ACAUGAGGAUCACCCAUGUAAUCAUAAUGGCUGAUGUAGAGUCAGGAUAUGUGUGGCUAACAAUCGCAGAAGGGACAAGACUGG [Deportation 32 - Jieux - Exclusion NG 3] (Eterna round: R96, puzzle: Exclusion NG 3) | 31.4 | 21.6 | 29.5 |  | 
AGUACUAUCACGAAAGUGAUAGUACAAUAAGCUUGUGAAACAUGAGGAUCACCCAUGUCCUCAUAAGCUCGUCUUAU [JL turnoff v2 77] (Eterna round: R96, puzzle: Sensor v2, turn-off variant 2) | 16.1 | 463 | 18.7 |  | 
GCGCCAUCGUGAGAUGGCGUAAUUACAUGAGGAUCACCCAUGUAGGAUAUCGAUUGCUUUGCAGUCGAGAAGGGCAUGUUUUGU [JL ENG3 3.85] (Eterna round: R96, puzzle: Exclusion NG 3) | 33.3 | 26.4 | 31.5 |  | 
UUCGGCGGAGGAUAUACAUAUUUUUGUUGAAUCGGCGGAAAACAUGAGGAUCACCCAUGUAGAAGGUUGUUGAA [-16.3, -13.4 kcal, A 30%] (Eterna round: R97, puzzle: Exclusion 2) | 27.2 |  | 32.3 |  | 
CUAACAUGCUGGUGAUCAUACAUGAGGAUCACCCAUGUAACAAGCUUUUUGCUCGUCUUAAUUUAAUUGAUUACUAG [Stov1/8-A3] (Eterna round: R97, puzzle: Sensor, turn-off variant 1) | 88.9 |  | 113 |  | 
AUAUAUAGUGUGAGGAUAUGCUGGUCCUUGGAUCAGCAGAAGGCACAUGAGGAUCACCCAUGUAGUUAAAUAUA [Mat - Exclusion 4 - JL Mod - D19] (puzzle: Brourd's mod of Exclusion 4) |  |  |  | 32.1 | 
CACCGUUAGAGAGGAUAUCGUACAUGAGGAUCACCCAUGUAAUAAAUGAGAAUUUCGGAUGUAUGCGAGAAGGCUCGAAUCGGC [Ostracism 33 - Jieux - Exclusion NG 2] (Eterna round: R96, puzzle: Exclusion NG 2) |  | 38.6 |  |  | 
AGAUUAAAUGAGGAUAUCGUAUUGGAUAUAGUGCGAGAAGGCAUGACAUGAGGAUCACCCAUGUAGUGUUGGGA [JR_Ex6_Sub009] (Eterna round: R97, puzzle: Exclusion 6) | 91.5 |  | 43.4 |  | 
CAGCUGAAUGUCAGGAUAUCUAGAGCUGCGGCUCUAGAGAAGGGACAUGAGGAUCACCCAUGUCACUCCAGCUG [BmEx4/3-B3] (Eterna round: R97, puzzle: Brourd's mod of Exclusion 4) | 21.3 |  | 16.4 |  | 
CUGAGCUGAGGAUAUACAUGAGGAUCACCCAUGUGUUCCAGCUUGGGUACAGGCACAUGUAGAAGGCAGUUCGG [Mod of JL - ex3-3.35 Brourd mod] (puzzle: Exclusion 3) |  |  |  | 62 | 
AUUGUUUAUGUAGGAUAUGCCUGGCGUGCCUUUGCAGAAGGACAUGAGGAUCACCCAUGUAUUGCGGUCUGCGUUCAGAUCGCU [salish99_ExNG1_r4_033] (Eterna round: R96, puzzle: Exclusion NG 1) | 44.4 | 28.7 | 30.7 |  | 
ACAUGAGGAUCACCCAUGUCGAGUACAUGAGGAUCACCCAUGUAGGAUAUGGUUCGCUUUGCGUGCUAGAAGGAUAUGUGUUGC [salish99_ExNG3_r04_509] (Eterna round: R96, puzzle: Exclusion NG 3) | 351 | 199 | 241 |  | 
AGCUUUUUGUUCGUCUUAUACAUGAGGAUCACCCAUGUAUUGGACCGCAUCGAUAGAUGUAGACCGAGAAGCAUGGG [Omdei Mir OFFv1 C6] (Eterna round: R97, puzzle: Sensor, turn-off variant 1) | 63 |  | 55.3 |  | 
ACCUCACAUGAGGAUCACCCAUGUUAGGAUAUCUCGACACUCCGCGGGCGGUAGCGUCAGAGAAGGAACGUGCU [Iszaxeza] (puzzle: Exclusion 1) |  |  |  | 23.1 | 
GAUCCACAUGAGGAUCACCCAUGUGAGGAUAUGAUACUAUGUACUUCGGUACAUAGUAUCAGAAGGCAUAUUGA [Ex1-3: 46] (puzzle: Exclusion 1) |  |  |  | 36.3 | 
UUUAUAUAUGAAGGAUAUACUUAACAUGAGGAUCACCCAUGUGGUGUUGUGAGUGAGUGAGUUUAGUAGAAGGUCAAGUAUUUU [JMF's solution 49] (Eterna round: R96, puzzle: Exclusion NG 2) | 719 | 177 | 198 |  | 
UGAAAGGUAGGAUAUACGAAGAAAAAGGGUAGAAUAAUAACACAUGAGGAUCACCCAUGUAGAAGGACCAAAGU [Mat - Exclusion 2 - Mod of my Tesla design - D10] (puzzle: Exclusion 2) |  |  |  | 26.2 | apparent KD of MS2 coat protein [2]: 51.7 nM; apparent KD of MS2 coat protein [4]: 24.6 nM
